Here are results for five molecules from PMC8446801, “Coiled-coil binding of the leucine zipper domains of APOL1 is necessary for the open cation channel conformation” (The Journal of Biological Chemistry, 2021).

Residue numbers refer to the chain shown, from its start. Numbers in names are those of the source.

As a reminder, the stoichiometry N is a count of units in the complex or per binding partner.

One data set deals with APOL1 G0 (human) (UniProt O14791).
Data set [1] deals with the molecule itself. Put plainly: cross-linking; untreated control protein (lane c): thawed on ice from -80 °C and immediately diluted into SDS sample buffer; nonreducing SDS-PAGE, silver stain.
Data set [2] concerns the molecule itself. Put plainly: cross-linking; disulfide trapping between substituted cysteines, no membranes; protein (~0.159 uM) in 0.2 ml buffer (5 mM succinate, 5 mM Hepes, 0.5 mM KCl, 5 mM CaCl2), room temperature, 1 h at pH 5.6 followed by 1 h at pH 7.2; nonreducing SDS-PAGE, silver stain.
For another data set, the target named is APOL1 LZA 1 (human) (UniProt O14791).

B1: APOL1 G0 (natural protein)
chain: EEAGARVQQNVPSGTDTGDPQSKPLGDWAAGTMDPESSIFIEDAIKYFKEKVSTQNLLLLLTDNEAWNGFVAAAELPRNEADELRKALDNLARQMIMKDKNWHDKGQQYRNWFLKEFPRLKSKLEDNIRRLRALADGVQKVHKGTTIANVVSGSLSISSGILTLVGMGLAPFTEGGSLVLLEPGMELGITAALTGITSSTIDYGKKWWTQAQAHDLVIKSLDKLKEVKEFLGENISNFLSLAGNTYQLTRGIGKDIRALRRARANLQSVPHASASRPRVTEPISAESGEQVERVNEPSILEMSRGVKLTDVAPVSFFLVLDVVYLVYESKHLHEGAKSETAEELKKVAQELEEKLNILNNNYKILQADQEL
In the case of B1, the trypanosome lysis (T. b. brucei, 24 h), IC50 with APOL1 G0 (human) was determined as 0.125 µg/mL.

B2: APOL1 LZA A375C (natural protein, human, UniProt O14791 28-398, looked up)
chain: B1 chain with L344A, A348C, L351A, L358A, L365A
notes: Apolipoprotein L-I (APOL1) G0, human, aa 28-398, isoform K150, I228, K255 (GenBank AAI12944.2), every d position leucine of the ZIP domain to alanine plus A375C; Disulfide dimers were already present in the starting material (formed during purification); source: E. coli BL21-DE3-RIPL, purified (nickel-chelate chromatography, SEC); not shown: His6, N-terminal, kept
In the case of B2, in data set [1], the “stoichiometry N” value was 2.

B3: APOL1 A363C (natural protein, human, UniProt O14791 28-398, looked up)
chain: B1 chain with A336C
notes: Apolipoprotein L-I (APOL1) G0, human, aa 28-398, isoform K150, I228, K255 (GenBank AAI12944.2); Cysteine in the predicted turn region between the pore-lining region and the ZIP domain, outside the ZIP domain; source: E. coli BL21-DE3-RIPL, purified (nickel-chelate chromatography, SEC); not shown: His6, N-terminal, kept
As for B3, the binding result in data set [2] was “binds”.

B4: APOL1 A375C (natural protein, human, UniProt O14791 28-398, looked up)
chain: B1 chain with A348C
notes: Apolipoprotein L-I (APOL1) G0, human, aa 28-398 (without the signal peptide), most common isoform K150, I228, K255 (GenBank AAI12944.2); Cysteine at the a position of the C-terminal leucine zipper (ZIP) domain; APOL1 has no endogenous cysteines; Stored with 1 mM DTT in the SEC buffer; also called apolipoprotein L-I A375C; source: E. coli BL21-DE3-RIPL, purified (nickel-chelate chromatography, …)
With B4, in data set [2], the “stoichiometry N” value came to 2.

B5: APOL1 LZA 1 (natural protein)
chain: B1 chain with L344A
Consider B5, for which the trypanosome lysis (T. b. brucei, 24 h), IC50 with APOL1 LZA 1 (human) came out at 0.6 µg/mL.
